The values that follow come from US20230192845A1.

pEC50, pIC50, pKd: −log10 of the molar value.

Experiment [1] has as its target T1, hCD96-humanIgG1 fusion protein (human) (UniProt P40200).
T1 sequence: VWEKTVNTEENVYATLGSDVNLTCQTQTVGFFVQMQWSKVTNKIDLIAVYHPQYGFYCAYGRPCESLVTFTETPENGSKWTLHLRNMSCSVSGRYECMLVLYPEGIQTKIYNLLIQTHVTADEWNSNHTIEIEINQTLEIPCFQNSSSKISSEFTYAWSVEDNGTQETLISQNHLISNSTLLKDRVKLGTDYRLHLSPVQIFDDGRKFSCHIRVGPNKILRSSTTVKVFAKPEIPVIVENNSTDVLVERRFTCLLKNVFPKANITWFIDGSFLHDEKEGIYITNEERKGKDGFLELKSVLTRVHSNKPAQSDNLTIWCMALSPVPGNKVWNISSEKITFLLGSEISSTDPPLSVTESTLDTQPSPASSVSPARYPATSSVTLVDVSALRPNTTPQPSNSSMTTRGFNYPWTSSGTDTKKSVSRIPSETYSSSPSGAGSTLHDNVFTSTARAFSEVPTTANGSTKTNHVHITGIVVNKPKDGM
In words: SPR (Biacore), hCD96-hFc captured by anti-huFc. Background: Surface plasmon resonance follows binding to a sensor surface in real time, without labels.

Experiment [2] has as its target human CD96 short isoform v2 expressed on CHO cells (human) (UniProt P40200). As to the kind of experiment: FCM, inhibition of hCD155-Fc binding to hCD96v2-CHO cells.
For experiment [3] the target is unchanged. In words: FCM on hCD96v2-CHO cells.
For experiment [4], the target named is hCD226-His tagged protein transiently expressed on CHO cells (human) (UniProt Q15762). In words: FRET between anti-hCD226-PE (DX11) and anti-HA-APC by flow cytometry on CHO cells transfected with hCD96-HA and hCD226-His; right-hand plot; the left-hand plot of the panel prints FRET 0,22% (taken as the pooled negative control). (A flow cytometer gives signals particle by particle.)
Sequence of hCD226-His tagged protein transiently expressed on CHO cells (human) (Q15762 19-336): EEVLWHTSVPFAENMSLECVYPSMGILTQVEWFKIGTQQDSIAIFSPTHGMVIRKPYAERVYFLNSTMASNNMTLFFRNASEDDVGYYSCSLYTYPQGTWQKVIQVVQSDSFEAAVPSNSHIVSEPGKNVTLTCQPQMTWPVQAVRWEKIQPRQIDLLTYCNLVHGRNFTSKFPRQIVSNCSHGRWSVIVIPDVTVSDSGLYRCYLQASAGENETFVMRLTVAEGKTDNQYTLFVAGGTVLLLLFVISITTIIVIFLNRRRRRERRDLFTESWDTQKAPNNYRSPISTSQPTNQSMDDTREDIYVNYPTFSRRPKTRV

For experiment [5], the target named is hCD96-HA tagged protein transiently expressed on CHO cells (FRET assay) (human) (UniProt P40200). As to the kind of experiment: FRET between anti-HA-PE and anti-HA-APC by flow cytometry on CHO cells transfected with hCD96-HA; right-hand plot; the left-hand plot of the panel prints FRET 0,10% (taken as the pooled negative control).

For orientation: pKd means the negative decadic logarithm of the Kd, by convention in mol/L. A higher pKd goes with a low Kd. For orientation: koff means a measure of how fast the partners let go of each other. A low value points to a long-lived complex. Usually kon stands for the rate constant with which the complex forms. A higher kon goes with fast association. For orientation: pIC50 means −log10 of the IC50, conventionally taken in molar units. Read a high pIC50 as a low IC50. Usually pEC50 stands for the negative decadic logarithm of the EC50, by convention in mol/L. The low end stands for a large EC50, the high end for a small EC50. With NK92.39 (antibody), in experiment [1], the negative logarithm of the Kd (pKd) is 8.49, the koff is 0.000346 s⁻¹ and the on-rate (kon) was 107000 M⁻¹ s⁻¹. Moreover, in experiment [2], the negative logarithm of the IC50 (pIC50) was 7.98 and the Maximal Inhibition Capacity (%) came to 100%. In experiment [3], this substance showed a negative-log EC50 (pEC50) of 8.80 and a Maximum binding (delta MFI) of 283000 delta MFI.
As for clone 628211 (antibody), in experiment [2], the pIC50 was 7.80 and the Maximal Inhibition Capacity (%) turned out to be 100%. In experiment [3], this substance showed a pEC50 of 8.43 and a Maximum binding (delta MFI) of 543000 delta MFI.
In the case of “hCD96-HA tagged protein transiently expressed on CHO cells (FRET assay) (from UniProt P40200 22-585) (receptor)”, the FRET (% of cells in the FRET gate) in experiment [4] came out at 17.9%; in experiment [5], 11.6%.
